Tested on: MS2 coat protein
Test: apparent KD of MS2 coat protein; higher = weaker reporter binding
Conditions: Eterna round: R107
How it was run: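 Designed RNA switches were transcribed on-chip from Illumina sequencing clusters. They were then titrated with SNAP-549-labelled MS2 coat protein (twofold steps, 0.7 or 1.5 nM to 3 µM; 0.8–1.5 h to 10–20 min per step) in 100 mM Tris-HCl pH 7.5, 80 mM KCl, 4 mM MgCl2, without or with constant ligand. Apparent KD is the per-design median of normalised cluster binding-curve fits.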

[1] = input ligand: theophylline 20 uM
[2] = input ligand: theophylline 2 mM
[3] = input ligand: tryptophan 2.4 mM

Sequence | apparent KD of MS2 coat protein (input ligand: arginine 13.2 mM) [nM] | apparent KD of MS2 coat protein (input ligand: none) [nM] | apparent KD of MS2 coat protein [1] [nM] | apparent KD of MS2 coat protein [2] [nM] | apparent KD of MS2 coat protein [3] [nM]
CGCACAUGAGGAUCACCCAUGUGAGGGCAUCGAGGACCGGUACGGCCGCCACUCGCAGGACAUGAGGAUCACCCAUGUGCCGCCG [SSTA DOUBLE!!! :-D #5] | 22.1 | 34.3 | 52.9 | 47.2 | 24.4
CGCACAUGAGGAUCACCCAUGUGAGGGCGACGAGGACCGGUACGGCCGCCACUCGCAAAACAUGAGGAUCACCCAUGUGCCGCCG [SSTA DOUBLE!!! :-D #3] | 19.7 | 19.3 | 42.7 | 29.1 | 20.3
CGCACAUGAGGAUCACCCAUGUGAGGGUACCGAGGACCGGUACGGCCGCCACUCGCAGGACAUGAGGAUCACCCAUGUGCCGCCG [SSTA DOUBLE!!! :-D #6] | 24.3 | 38.3 | 41.9 | 44.5 | 31
CGCUACGUAACUGAUACCAGUGUACUGACAUGAGGAUCACCCAUGUUGGGUUUUGUUGUACACCCUUGGCAGCAGAAUCGUAGCG [AstrosExyTheB#13] | 58.7 | – | 79.2 | – | 61.3
CGGAGUAUGACGGCCGCCACUUGCCGGGCGCAGCUGGCUGCUUGACAUGAGGAUCACCCAUGUCCAAGGACCGGGUCAUUCCUCG [theeternabot_sameState_MS2_Trp_B_37] | 59.4 | – | 145 | 189 | –
CGGCCCUCACAUGAGGAUCACCCAUGUGAUACCAGCCUGGAAACAGGCCCUUGGCAGCACAGGUCAUCAAAAGAUGACCAAGCCG [TheoAX 21 #SwitchBubble] | 15.1 | – | 20.5 | – | 11.8
CGGGUUCGGGCGGCCGCCACUAUGAUUAGGUGUGGGUGUGUUGUGUUACAUGAGGAUCACCCAUGUAGGACCGGGUUUGGGCUUG [Sturgeon] | 33.4 | 52.6 | 84.5 | 28.3 | 57.4
CGGUAGGUAGGUCGAUAUCUACCCGUAGAAGGAGCGUAAGAAAAUACAGGUAGGUCGCUACGGUACAUGAGCAUCAGCCAUGUCC [SSArg A #13 Alt-Ms2] | 10.5 | 11.7 | 15.2 | 11.7 | 13.1
CGGUAUGGGACGGCCGCCACUAUUAUGUAACAAAAUAAACAUGAGGAUCACCCAUGUACAUGGGAUAGGACCGGGUCCUAUAGCG [#23 Same State - Tryptophan B] | 19.8 | 55.7 | 70.9 | 133 | 17.7
CGUAUUGGAAACAGUACGAGUGAUCCGGUCCGAGGACCGGUACGGCCGCCACUCGAAAUAAAUAAACAUGAGGAUCACCCAUGUA [Ex Tryptophan A 9] | 14.1 | – | 18.2 | 21.9 | –
CUAAAUAUAACGGCCGCCACUUACUCAUGAGGUAACAACAUGAGGAUCACCCAUGUUUGAGGAUCAAGGACCGGGUUAUAUUUAG [AstrosSSTry#22] | 26.5 | – | 38.1 | 30.2 | –
CUAAGAGUUACGGCCGCCACUAGUUGGGAUCCGCCCGUAAAAUCACAUGAGGAUCACCCAUGUCCUAGGACCGGGUAAUCGCAUU [theeternabot_sameState_MS2_Trp_B_31] | 110 | – | 616 | 499 | –
CUACAUUUGUAGAAACCGGUCAACAAUAAUCGAGGACCGGUACGGCCGCCACUCGAUGUGAAAUCACAUGAGGAUCACCCAUGUA [Tryptophan A 18] | 18.9 | – | 23.8 | 19.8 | –
CUACAUUUGUAGAAACCGGUCAACAAUAAUCGAGGACCGGUACGGCCGCCACUCGAUGUGUUAUACACAUGAGGAUCACCCAUGU [Tryptophan A 14] | 21.7 | – | 24.7 | 22.9 | –
CUACAUUUGUAGAAACCGGUCAACAUUAUUCGAGGACCGGUACGGCCGCCACUCGUAUAUUUUUAUACAUGAGGAUCACCCAUGU [Tryptophan A 7] | 14.4 | – | 14.4 | 13 | –
CUACAUUUGUAGAAACCGGUCACCGUUACUCGAGGACCGGUACGGCCGCCACUCGUGUCACGUGAUACAUGAGGAUCACCCAUGU [Tryptophan A 11] | 28.9 | – | 45.7 | 54.8 | –
CUAUAAGUACCGGUCCUCAGAUCCUCAUGACGAGGACCGGUACGGCCGCCACUCGAAACAUGAGGAUCACCCAUGUAAUAAUAUC [Brourdmod13] | 18.6 | – | 43.4 | 44.1 | –
CUAUAAGUAGCGGCCGCCACUUACUCAUGAGGUAACAACAUGAGGAUCACCCAUGUUUGAGGAUCAAGGACCGGGCUAUUUAUAG [AstrosSSTryB#9] | 24.7 | 28.7 | 32.6 | 31.5 | 17.6
CUAUAGAUAAGAAGGAGCGACAUGAGGAUCACCCAUGUCUACCACGUCGAAAGACGCUCAUGUCAGGUAGGUCGCUUAUUUAUAG [Astros-Eli-mod7] | 71.1 | 117 | 99.2 | 129 | 84.1
